The target in this test is Aβ_(1–40) fibrils (amyloid β peptide 1–40, fibrillar form) (UniProt P05067). Briefly: SPR; BIAcore 3000, CM5 chip; Aβ 1–40 fibrils immobilised by amine coupling at 2000 RU; ApoE4 injected at 20 μL/min until saturation; degassed PBS pH 7.4, 25 °C.
Sequence of Aβ_(1–40) fibrils (amyloid β peptide 1–40, fibrillar form) (P05067 672-711): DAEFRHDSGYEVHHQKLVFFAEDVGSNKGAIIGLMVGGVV

Usually Kd stands for the concentration at which binding is half-saturated. Lower therefore signals tighter binding. For “recombinant human ApoE4 (Apolipoprotein E, ε4 allele) (from UniProt P02649 19-317) (natural protein)”, the Kd is 5 nM.
